Assays:
[1] = target: T1, Human TROP2 Protein, His Tag (Acro Biosystems) (human, UniProt P09758 27-274); assay: BLI (Octet), Ab on anti-human Fc sensor, 50 nM TROP2-His; 1 = pH dependent
T1 construct: Bought protein; not shown: His tag
T1 sequence (looked up): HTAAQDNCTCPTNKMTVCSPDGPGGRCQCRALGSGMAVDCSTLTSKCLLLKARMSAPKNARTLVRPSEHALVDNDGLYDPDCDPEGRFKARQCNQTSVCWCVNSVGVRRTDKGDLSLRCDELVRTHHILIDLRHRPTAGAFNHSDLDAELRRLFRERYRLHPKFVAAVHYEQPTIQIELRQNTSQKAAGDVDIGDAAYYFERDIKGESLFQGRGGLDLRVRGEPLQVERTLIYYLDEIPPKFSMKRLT
Description: After allowing for four days of protein expression, cell culture supernatants were collected, quantified by SDS-PAGE analysis (DNS), and the pH dependence of the variant was evaluated using biolayer interferometry (BLI) on an Octet RED 96e instrument. Briefly, cell culture supernatants were diluted based on qualitative expression level of the variant determined by visual examination of SDS-PAGE gels, 5 μL of cell culture supernatant was diluted into 195 μL of 1×PBST, pH 7.4 for high expressors, 25 μL of cell culture supernatant was diluted into 175 μL of 1×PBST, pH 7.4 for medium expressors and 100 μL of cell culture supernatant was diluted into 100 μL of 1×PBST, pH 7.4 for low expressors for loading onto the sensor tips. The resulting diluted supernatants were then captured on an anti-human Fc sensor (Forte Bio). A baseline was established using 1×PBST (50 mM Potassium Phosphate Buffer+150 mM NaCl+0.05% Tween 20) pH 7.4, and the sensor was associated with 50 nM of TROP2 (Human TROP2 Protein, His Tag, Acro Biosystems) in 1×PBST pH 7.4 for 120 sec to generate an association curve. In the dissociation phase, the antibody-antigen complex on the sensor was exposed to 1×PBST pH 7.4 or pH 5.4, for 300 sec. […]

[2] = target: T2, Human TROP2 Protein, His Tag (Acro Biosystems) (human, UniProt P09758 27-274); assay: BLI (Octet)
T2 construct: not shown: His tag
T2 sequence (looked up): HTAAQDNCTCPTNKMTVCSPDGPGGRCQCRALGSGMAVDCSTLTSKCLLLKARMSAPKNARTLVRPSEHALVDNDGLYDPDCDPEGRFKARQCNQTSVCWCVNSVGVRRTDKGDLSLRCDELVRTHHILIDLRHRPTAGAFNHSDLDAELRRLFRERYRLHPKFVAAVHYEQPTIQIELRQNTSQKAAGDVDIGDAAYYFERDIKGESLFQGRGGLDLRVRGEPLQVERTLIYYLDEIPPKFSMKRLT

[3] = target: T2, Human TROP2 Protein, His Tag (Acro …); assay: Octet BLI, IgG on anti-human Fc sensor, 50 nM TROP2-His; 2 = No change vs parent
[4] = target: T2, Human TROP2 Protein, His Tag (Acro …); assay: Octet BLI, IgG on anti-human Fc sensor, 50 nM TROP2-His; 1 = pH dependent
[5] = target: T3, Human TROP2 Protein, His Tag (Acro Biosystems) (human, UniProt P09758 27-274); assay: BLI (Octet) [1/2]
T3 construct: also called TACSTD2; not shown: His tag
T3 sequence (looked up): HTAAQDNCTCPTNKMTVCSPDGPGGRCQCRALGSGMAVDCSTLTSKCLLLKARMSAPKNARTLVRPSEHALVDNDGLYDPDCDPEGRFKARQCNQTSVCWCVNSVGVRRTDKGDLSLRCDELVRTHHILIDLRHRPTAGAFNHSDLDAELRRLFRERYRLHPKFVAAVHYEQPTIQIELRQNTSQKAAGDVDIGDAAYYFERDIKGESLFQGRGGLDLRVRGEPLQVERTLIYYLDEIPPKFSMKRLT

[6] = target: T4, Human TROP2 Protein, His Tag (human, UniProt P09758 27-274); assay: BLI (Octet), IgG on anti-human Fc sensor, 50 nM human TROP2-His; legend: 1 = pH dependent
T4 construct: Bought protein; also called TACSTD2; not shown: His tag
T4 sequence (looked up): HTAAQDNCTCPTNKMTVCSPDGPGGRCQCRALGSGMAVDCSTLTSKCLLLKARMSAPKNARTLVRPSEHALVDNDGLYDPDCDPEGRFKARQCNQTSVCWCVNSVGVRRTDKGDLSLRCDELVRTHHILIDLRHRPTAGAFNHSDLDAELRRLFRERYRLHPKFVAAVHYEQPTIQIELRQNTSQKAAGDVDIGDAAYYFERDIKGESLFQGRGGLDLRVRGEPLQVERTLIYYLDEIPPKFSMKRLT

[7] = target: T2, Human TROP2 Protein, His Tag (Acro …); assay: Octet BLI, IgG on anti-human Fc sensor, 50 nM TROP2-His; 1 = pH dependent; remark: listed apart in the source
[8] = target: T5, Human TROP2 Protein, His Tag (Acro Biosystems) (human, UniProt P09758 27-274); assay: BLI (Octet) [2/2]
T5 construct: not shown: His tag
T5 sequence (looked up): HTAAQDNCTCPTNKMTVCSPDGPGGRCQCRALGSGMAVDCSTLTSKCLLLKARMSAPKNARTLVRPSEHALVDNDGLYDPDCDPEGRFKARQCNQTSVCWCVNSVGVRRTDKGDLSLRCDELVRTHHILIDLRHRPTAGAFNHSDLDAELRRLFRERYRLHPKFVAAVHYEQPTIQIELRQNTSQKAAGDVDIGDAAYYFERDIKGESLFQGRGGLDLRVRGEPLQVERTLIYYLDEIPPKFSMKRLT

[9] = target: TROP2 on TROP2-positive NCI-H1975 cells (human) (UniProt P09758); assay: cell-based or functional assay; details: scale: % greater cytotoxicity compared to WT datopotamab
[10] = target: T6, Human TROP2 Protein, His Tag (Acro Biosystems) (human, UniProt P09758 27-274); assay: BLI (Octet) [1/2]
T6 construct: Bought antigen used at 50 nM in the Octet screen; also called TACSTD2; not shown: His tag
T6 sequence (looked up): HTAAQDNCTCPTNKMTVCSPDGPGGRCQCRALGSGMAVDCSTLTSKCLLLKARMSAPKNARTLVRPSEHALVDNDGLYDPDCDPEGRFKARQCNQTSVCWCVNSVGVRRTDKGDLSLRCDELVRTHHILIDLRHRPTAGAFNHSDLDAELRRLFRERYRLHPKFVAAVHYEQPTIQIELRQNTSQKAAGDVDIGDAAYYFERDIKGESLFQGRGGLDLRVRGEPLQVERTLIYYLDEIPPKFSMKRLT
Procedure, shortened: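 Antibody variants from day-4 expression supernatants, diluted in 1×PBST pH 7.4 by expression level, captured on anti-human Fc tips. Association with 50 nM human TROP2-His in PBST pH 7.4 for 120 sec; dissociation in PBST pH 7.4 or pH 5.4 for 300 sec. Curves examined for koff at each pH versus parent antibody.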

[11] = target: T6, Human TROP2 Protein, His Tag (Acro …); assay: Octet BLI, IgG on anti-human Fc sensor, 50 nM TROP2; 1 = pH dependent

B1: MYT11616 (antibody, V domains shown)
VH: QVQLQQSGSELKKPGASVKVSCKASGYTFTNYGMNWVKQAPGQGLKWMGWINTYTGEPTYTDDFKGRFAFSLDTSVSTAYLQISSLKADDTAVYFCARGGFGSSYWYFDVWGQGSLVTVSS
VL: DIQLTQSPSSLSASVGDRVSITCKASQDVSIHVAWYQQKPGKAPKLLIYSASYRYTGVPDRFSGSGSGTDFTLTISSLQPEDFAVYYCQQHYITPLTFGAGTKVEIK
notes: Sacituzumab variant, His at LCV position 32 (L1 09)
[1]
  binding result: binds

B2: MYT12388 (antibody, V domains shown)
VH: QVQLVQSGAEVKKPGASVKVSCKASGYTFTTAGMQWVRQAPGQGLEWMGWINTHSGVPKYAEDFKGRVTISADTSTSTAYLQLSSLKSEDTAVYYCARSGFGSSYWYFDVWGQGTLVTVSS
VL: DIQMTQSPSSLSASVGDRVTITCKASQHVSTAVAWYQQKPGKAPKLLIYSHSYRYTGVPSRFSGSGSGTDFTLTISSLQPEDFAVYYCQQHYITPLTFGQGTKLEIK
notes: datopotamab VL 28, 51 substituted
[2]
  binding result: binds

B3: MYT11619 (antibody, V domains shown)
VH: QVQLQQSGSELKKPGASVKVSCKASGYTFTNYGMNWVKQAPGQGLKWMGWINTYTGEPTYTDDFKGRFAFSLDTSVSTAYLQISSLKADDTAVYFCARGGFGSSYWYFDVWGQGSLVTVSS
VL: DIQLTQSPSSLSASVGDRVSITCKASQDVSIAVAWYQQKPGKAPKLLIYHASYRYTGVPDRFSGSGSGTDFTLTISSLQPEDFAVYYCQQHYITPLTFGAGTKVEIK
notes: Sacituzumab variant, His at LCV position 50 (L2 01)
[1]
  binding result: binds

B4: MYT12296 (antibody, V domains shown)
VH: QVQLQQSGSELKKPGASVKVSCKASGYTFTNHGMNWVKQAPGQGLKWMGWINTYTGEPTYTHDFKGRFAFSLDTSVSTAYLQISSLKADDTAVYFCARGGFGSSYWYFDVWGQGSLVTVSS
VL: DIQLTQSPSSLSASVGDRVSITCKASQDVSIAVAWYQQKPGKAPKLLIYSASYRYTGVPDRFSGSGSGTDFTLTISSLQPEDFAVYYCQQHYITPLTFGAGTKVEIK
notes: sacituzumab VH 32, 62 -> H
[3]
  binding result: binds

B5: MYT12317 (antibody, V domains shown)
VH: QVQLQQSGSELKKPGASVKVSCKASGYTFTNYGMNWVKQAPGQGLKWMGWINTYTGEPTYTDHFHGRFAFSLDTSVSTAYLQISSLKADDTAVYFCARGGFGSSYWYFDVWGQGSLVTVSS
VL: DIQLTQSPSSLSASVGDRVSITCKASQDVSIAVAWYQQKPGKAPKLLIYSASYRYTGVPDRFSGSGSGTDFTLTISSLQPEDFAVYYCQQHYITPLTFGAGTKVEIK
notes: sacituzumab VH 63, 65 -> H
[4]
  binding result: binds

B6: MYT13251 (antibody, V domains shown)
VH: QVQLQQSGSELKKPGASVKVSCKASGYTFTNYGMNWVKQAPGQGLKWMGWINTYTGEPTYTHDFKGRFAFSLDTSVSTAYLQISSLKADDTAVYFCARGGFGSSYWYFDVWGQGSLVTVSS
VL: DIQLTQSPSSLSASVGDRVSITCKASQDVSIAVAWYQQKPGKAPKLLIYSAHYRYTGVPDRFSGSGSGTDFTLTISSLQPEDFAVYYCQQHYHTPLTFGAGTKVEIK
notes: Sacituzumab HC-LC pairing variant
[5]
  binding result: binds

B7: MYT11688 (antibody, V domains shown)
VH: QVQLVQSGAEVKKPGASVKVSCKASGYTFTTAGMQWVRQAPGQGLEWMGWINTHSGVPKYAEDFKGRVTISADTSTSTAYLQLSSLKSEDTAVYYCARSGFGSSYWYFDVWGQGTLVTVSS
VL: DIQMTQSPSSLSASVGDRVTITCKASQDVSTAVAWYQQKPGKAPKLLIYHASYRYTGVPSRFSGSGSGTDFTLTISSLQPEDFAVYYCQQHYITPLTFGQGTKLEIK
notes: IgG from supernatant; His at LCV position 50; also called datopotamab variant L2 01
[6]
  binding result: binds

B8: MYT12399 (antibody, V domains shown)
VH: QVQLVQSGAEVKKPGASVKVSCKASGYTFTTAGMQWVRQAPGQGLEWMGWINTHSGVPKYAEDFKGRVTISADTSTSTAYLQLSSLKSEDTAVYYCARSGFGSSYWYFDVWGQGTLVTVSS
VL: DIQMTQSPSSLSASVGDRVTITCKASQHVSTAVAWYQQKPGKAPKLLIYSHSYRYTGVPSRFSGSGSGTDFTLTISSLQPEDFAVYYCHQHYITPLTFGQGTKLEIK
notes: datopotamab VL 28, 51, 89 substituted
[7]
  binding result: binds

B9: MYT11687 (antibody, V domains shown)
VH: QVQLVQSGAEVKKPGASVKVSCKASGYTFTTAGMQWVRQAPGQGLEWMGWINTHSGVPKYAEDFKGRVTISADTSTSTAYLQLSSLKSEDTAVYYCARSGFGSSYWYFDVWGQGTLVTVSS
VL: DIQMTQSPSSLSASVGDRVTITCKASQDVSTAVHWYQQKPGKAPKLLIYSASYRYTGVPSRFSGSGSGTDFTLTISSLQPEDFAVYYCQQHYITPLTFGQGTKLEIK
notes: IgG from supernatant; His at LCV position 34; also called datopotamab variant L1 11
[6]
  binding result: binds

B10: MYT13257 (antibody, V domains shown)
VH: QVQLVQSGAEVKKPGASVKVSCKASGYTFTTAGMQWVRQAPGQGLEWMGWINTHSGVPKYAEDFKGRVTISADTSTSTAYLQLSSLKSEDTAVYYCAHSGFGSSYWYFDVWGQGTLVTVSS
VL: DIQMTQSPSSLSASVGDRVTITCKASQDHSTAVAWYQQKPGKAPKLLIYSASYRYTGVPSRFSGSGSGTDFTLTISSLQPEDFAVYYCQQHYITPLTFGQGTKLEIK
notes: Full-length IgG from Expi293 supernatant; also called datopotamab heavy chain and light chain pairing variant
[8]
  binding result: binds

B11: MYT11741 (antibody, V domains shown)
VH: QVQLQESGPGLVKPSETLSLTCTVSGGSISSYGVHWIRQPPGKGLEWIGVIWTSGVTDYNSALMGRVTISVDTSKNQFSLKLSSVTAADTAVYYCARDGDYDRYTHDYWGQGTLVTVSS
VL: DIVMTQSPDSLAVSLGERATINCRASKSVSTSGYSYMHWYQQKPGQPPKLLIYLASNLESGVPDRFSGSGSGTDFTLTISSLQAEDVAVYYCQHSRELPYTFGQGTKLEIK
[9]
  cytotoxicity on TROP2-positive NCI-H1975 cells (antibody complexed to secondary antibody-MMAF, cell titer glow assay): 30
[10]
  binding result: binds

B12: MYT11773 (antibody, V domains shown)
VH: QVQLQESGPGLVKPSETLSLTCTVSGGSISSYGVHWIRQPPGKGLEWIGVIWTSGVTDYNSALMGRVTISVDTSKNQFSLKLSSVTAADTAVYYCARDGDYDRYTMDYWGQGTLVTVSS
VL: DIVMTQSPDSLAVSLGERATINCRASKSVSTSGYSYMHWYQQKPGQPPKLLIYLASNLESGVPDRFSGSGSGTDFTLTISSLQAEDVAVYYCQHSRELPHTFGQGTKLEIK
notes: hu7E6SVG variant, His at LCV position 100 (L3 08); screened as IgG in Expi293 supernatant
[11]
  binding result: binds
